Data on ten molecules can be found in US20240158785A1 (Chugai, published 2024).

In assay [1] the target is T1, human IL-6 receptor (human, UniProt P08887 20-357, limits assumed, biotin-labeled in the ELISA and Octet assays (position not given)).
T1 construct: also called hIL-6R; biotin-labeled hIL-6R
T1 sequence: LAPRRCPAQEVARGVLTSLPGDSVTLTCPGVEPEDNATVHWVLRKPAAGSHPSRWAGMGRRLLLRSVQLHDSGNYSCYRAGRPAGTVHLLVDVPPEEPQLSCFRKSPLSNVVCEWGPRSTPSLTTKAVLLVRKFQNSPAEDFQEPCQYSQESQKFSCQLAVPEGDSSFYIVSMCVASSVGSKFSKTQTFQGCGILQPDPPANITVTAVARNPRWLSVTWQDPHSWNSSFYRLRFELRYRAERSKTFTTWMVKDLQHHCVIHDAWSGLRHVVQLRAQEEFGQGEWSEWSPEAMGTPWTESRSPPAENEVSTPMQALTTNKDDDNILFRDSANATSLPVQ
Kind of assay: SPR (Biacore T200), hIL-6R amine-coupled on CM5, antibody as analyte, equilibrium values, 1 mM ATP, 25 C; 1 mM ATP; Biacore, hIL-6R on CM5, antibody concentration series, 25 C. The method, then:
The running buffer used was 20 mmol/L ACES, 150 mmol/L NaCl, 0.05% (w/v) Tween20, pH 7.4. The assay was performed at 25° C. hIL-6R was immobilized onto Sensor chip CM5 by amine coupling, and interacted with the antibodies as an analyte for 120 seconds to observe changes in the amount of binding. Antibodies were diluted with the running buffer or the running buffer added with any one of ATP, ADP, AMP, cAMP, and adenosine (ADO). The final concentration of each small molecule was adjusted to 1 mM, and the final concentration of the antibody was adjusted to 1 μM. Meanwhile, under the 1 mM ATP condition, the assay was carried out with a series of stepwise antibody concentrations. The dissociation constant KD (mol/L) of each clone for hIL-6R was calculated from a plot of equilibrium values against antibody concentration. The parameters were calculated using the Biacore T200 Evaluation Software (GE Healthcare).

In assay [2] the target is T1, human IL-6 receptor. Kind of assay: SPR (Biacore T200), antibody captured on protein A, hIL-6R as analyte, 100 µmol/L kynurenine, 25 C; 100 µmol/L kynurenine; Biacore, antibody captured, hIL-6R as analyte.
Procedure: An appropriate amount of protein A (Invitrogen) was immobilized onto Sensor chip CM5 (GE Healthcare) by the amine coupling method. The antibody of interest was captured onto the sensor chip, and the antigen hIL-6R was allowed to interact. […] The interaction with the antigen hIL-6R was measured at 25° C. hIL-6R was diluted with the running buffer, the running buffer containing 100 μmol/L kynurenine, or, as a control, the running buffer containing 10 mmol/L ATP.
Then, the running buffer was run at a flow rate of 10 μL/min for one minute to observe the dissociation of hIL-6R from the antibody. Next, 10 mmol/L glycine-HCl, pH 1.5, was injected at a flow rate of 30 μL/min for 30 seconds to regenerate the sensor chip. […] Each parameter was calculated using Biacore T200 Evaluation Software (GE Healthcare).
In assay [3] the target is T2, human serum albumin (human, UniProt P02768 25-609, biotin-labeled antigen (position not given)).
T2 construct: also called HSA
Kind of assay: phage ELISA: biotin-labeled HSA on a streptavidin plate, purified Fab-displaying phage, HRP anti-M13 antibody, absorbance 450 nm; with or without 10 mM ATP and adenosine.

Assay [4] has as its target T1, human IL-6 receptor. The experiment in a line: ELISA: biotin-labeled hIL-6R on a streptavidin plate, purified IgG, absorbance 450 nm; with 1 mM kynurenine, tryptophan, phenylalanine, anthranilic acid, 3-hydroxykynurenine, kynurenic acid, or none (Table 14).
Procedure: The antigen used was biotin-labeled hIL-6R.
First, a StreptaWell 96 microtiter plate (Roche) was coated with 100 μL of PBS containing biotin-labeled antigens at room temperature for one hour or longer. […] 100 μL of each of the purified IgGs prepared at 2.5 μg/mL using Sample Buffer containing small molecules at the final concentrations shown in Table 14 were added to each well, and the plate was let still at room temperature for one hour to allow each IgG to bind to the antigen present in each well. After washing with Wash Buffer containing amino acids and amino acid metabolites at the final concentrations shown in Table 14, HRP-conjugated anti-human IgG antibody (BIOSOURCE) diluted with Sample Buffer containing amino acids and amino acid metabolites was added to each well, and the plate was incubated for one hour. After washing with Wash Buffer containing the respective amino acids and amino acid metabolites, the chromogenic reaction of TMB single solution (ZYMED) added in each well was terminated by adding sulfuric acid.

B1: 6RAD2C1-4_001 (antibody, human IgG1, lambda, V domains shown)
VH: EVQLVESGGDLVKPGGGLRLSCAASGFTFSGHTMNWVRQAPGKGLEWVSSISSRSNYIYYADSVKGRFTISRDNAKNSLYLQMNSLRAEDTAVYYCARYGRLHDRNWVFDYWGQGTLVTVSS
VL: QSALTQPPSASGSPGQTVTISCTGTSTDVGDYNYVSWYQQHPGKAPKLMIYQVSKKPSGVPDRFSGSKSGNTASLTVSGLQAEDEADYFCSSRSYGAGVVFGGGTKLTVLG
notes: also called 6RAD2C1-4_01
B1: in assay [1], the dissociation constant Kd was 300 nM.

B2: 6RDL3C1-4_085 (antibody, human IgG1, lambda, V domains shown)
VH: EVQLVESGGDLVKPGGGLRLSCAASGFTFSGHTMNWVRQAPGKGLEWVSSISSRSNYIYYADSVKGRFTISRDNAKNSLYLQMNSLRAEDTAVYYCARYGRLHDRNWVFDYWGQGTLVTVSS
VL: QSALTQPPSASGSPGQTVTISCTGTSTDVGDYNYVSWYQQHPGKAPKLMIYQVSKKPSGVPDRFSGSKSGNTASLTVSGLQAEDEADYFCSSRSYGAGVVFGGGTKLTVLG
notes: also called 6RDL3C1-4_85
The molecule B2 displayed a Kd in assay [1] of 390 nM.

B3: 6RAD2C1-4_076 (antibody, human IgG1, lambda, V domains shown)
VH: EVQLVESGGDLVKPGGGLRLSCAASGFTFSGYTMNWVRQAPGKGLEWVSSISSRSSYIDYADSVKGRFTISRDNAKNSLYLQMNSLRAEDTAVYYCARYGALGQRNWVFDYWGQGTLVTVSS
VL: QSALTQPPSASGSPGQTVTISCTGTSTDVGDYNYVSWYQQHPGKAPKLMIYQTSKRPSGVPDRFSGSKSGNTASLTVSGLQAEDEADYFCSSRSIKHPVFGGGTKLTVLG
notes: also called 6RAD2C1-4_76
As to B3, the Kd in assay [1] was found to be 250 nM.

B4: 6RAD2C1-4_005 (antibody, human IgG1, lambda, V domains shown)
VH: EVQLVESGGDLVKPGGGLRLSCAASGFTFSTHTMNWVRQAPGKGLEWVSSISSRSSYIHYADSVKGRFTISRDNAKNSLYLQMNSLRAEDTAVYYCARFGKLGERNWVFDYWGQGTLVTVSS
VL: QSALTQPPSASGSPGQTVTISCTGTSTDVGDYNYVSWYQQHPGKAPKLMIYQVSKKPSGVPDRFSGSKSGNTASLTVSGLQAEDEADYFCSVRSDGHGPMFGGGTKLTVLG
notes: also called 6RAD2C1-4_05
In the case of B4, in assay [1], the Kd amounted to 340 nM.

B5: 6RAD2C1-4_011 (antibody, human IgG1, lambda, V domains shown)
VH: EVQLVESGGDLVKPGGGLRLSCAASGFTFSGHTMNWVRQAPGKGLEWVSSISSRSSYIYYADSVKGRFTISRDNAKNSLYLQMNSLRAEDTAVYYCARYGALGQMNWVFDYWGQGTLVTVSS
VL: QSALTQPPSASGSPGQTVTISCTGTSTDVGDYNYVSWYQQHPGKAPKLMIYSVSKRPSGVPDRFSGSKSGNTASLTVSGLQAEDEADYFCSSRSSSMNVLFGGGTKLTVLG
notes: also called 6RAD2C1-4_11
For the molecule B5, in assay [1], binding was put at a Kd of 230 nM.

B6: 6RAD2C1-4_026 (antibody, human IgG1, lambda, V domains shown)
VH: EVQLVESGGDLVKPGGGLRLSCAASGFTFSGYTMNWVRQAPGKGLEWVSSISSRSNYAHYADSVKGRFTISRDNAKNSLYLQMNSLRAEDTAVYYCARYGRLGDRNWVFDYWGQGTLVTVSS
VL: QSALTQPPSASGSPGQTVTISCTGTSTDVGAYNYVSWYQQHPGKAPKLMIYKVSKKPSGVPDRFSGSKSGNTASLTVSGLQAEDEADYFCSLRAATTGVLFGGGTKLTVLG
notes: also called 6RAD2C1-4_26
The molecule B6 came in with an equilibrium dissociation constant (Kd) in assay [1] of 210 nM.

B7: 6RNMSC1-2_F02 (antibody, human IgG1, V domains shown)
VH: QVQLVQSGAEVKKPGSSVKVSCKASGGTFSSYAISWVRQAPGQGLEWMGGIIPIFGTANYAQKFQGRVTITADESTSTAYMELSSLRSEDTAVYYCARDAPVVARPRGAFDIWGQGTMVTVSS
VL: DIVMTQTPLSSPVTLGQPASISCRSSQSLVHSDGNTYLSWLQQRPGQPPRLLIHEISNRFSGVPDRFSGSGAGTNFTLKISRVEAEDVGVYYCMQATQFPRTFGQGTKVEIK
notes: Variable region genes were inserted into a human IgG1/Kappa expression plasmid; also called clone 6RNMSC1-2_F02; antibody 6RNMSC1-2_F02
With B7, the Kd in assay [2] was 1500 nM.

B8: HSADSA1-6_020 (Fab, V domains shown)
VH: EVQLVESGGDLVKPGGGLRLSCAASGFTFSSHTMNWVRQAPGKGLEWVSSISSRSNHATYADSVKGRFTISRDNAKNSLYLQMNSLRAEDTAVYYCARFGKKGRYLWVFDYWGQGTLVTVSS
VL: QSALTQPPSASGSPGQTVTISCTGTSSDVGDYNYVSWYQQHPGKAPKLMIYYVSKRPSGVPDRFSGSKSGNTASLTVSGLQAEDEADYFCSLTTDSLNPVFGGGTKLTVL
notes: also called clone HSADSA1-6_020
As to B8, the binding result in assay [3] is “binds”.

B9: 6RAD2C1-4_030 (antibody, human IgG1, lambda, V domains shown)
VH: EVQLVESGGDLVKPGGGLRLSCAASGFTFSSYTMNWVRQAPGKGLEWVSSISSRSGYAYYADSVKGRFTISRDNAKNSLYLQMNSLRAEDTAVYYCARFGALNTLNWVFDYWGQGTLVTVSS
VL: QSALTQPPSASGSPGQTVTISCTGTSTDVGDYNYVSWYQQHPGKAPKLMIYQVSKKPSGVPDRFSGSKSGNTASLTVSGLQAEDEADYFCSTRTANAGVLFGGGTKLTVLG
notes: also called 6RAD2C1-4_30
In assay [1], B9 gave a Kd of 330 nM.

B10: GC413 (antibody, V domains shown)
VH: QVQLVQSGAEVKKPGASVKVSCKASGYTFTDYEMHWIRQPPGQGLEWIGAIDPKTGDTAYSQKFKGRVTLTADKSTSTAYMELSSLTSEDTAVYYCTRFYSYTYWGQGTLVTVSS
VL: DIVMTQSPLSLPVTPGEPASISCRSSQSLVHSNRNTYLHWYQQKPGQAPRLLIYKVSNRFSGVPDRFSGSGSGTDFTLKISRVEAEDVGVYYCSQNTHVPPTFGQGTKLEIK
notes: also called anti-human glypican 3 antibody GC413; negative control
On to B10, for which, in assay [4], the binding result is reported as “no binding (tested: 2.5 µg/mL)”.
